In this test the target is T1, WT-HBc capsids (hepatitis B core protein, genotype D; strain ayw; GenBank: V01460.1) (Hepatitis B virus (genotype D; strain ayw)), P03146.
T1 chain: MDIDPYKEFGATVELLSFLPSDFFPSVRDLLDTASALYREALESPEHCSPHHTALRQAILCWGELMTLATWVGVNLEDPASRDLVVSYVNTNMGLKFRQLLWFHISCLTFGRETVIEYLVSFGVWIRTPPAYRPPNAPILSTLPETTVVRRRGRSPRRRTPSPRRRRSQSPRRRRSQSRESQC
Briefly: negative-staining electron microscopy. Conditions: remark: other sources report otherwise.

B1: WT-HBc capsids (hepatitis B core protein, genotype D; strain ayw; GenBank: V01460.1), P03146 1-183 (natural protein)
chain: T1 chain
B1 showed a stoichiometry N (subunits per capsid) of 240.
